Measurements published in patent US12099068B2, “Biomarkers for graft-versus-host disease” (Incyte Corporation, priority 2018, dated 2024).

B1: FADD (protein, UniProt Q13158 1-208, looked up)
FAS-associated death domain …: MDPFLVLLHSVSSSLSSSELTELKFLCLGRVGKRKLERVQSGLDLFSMLLEQNDLEPGHTELLRELLASLRRHDLLRRVDDFEAGAAAGAAPGEEDLCAAFNVICDNVGKDWRRLARQLKVSDTKIDSIEDRYPRNLTERVRESLRIWKNTEKENATVAHLVGALRSCQMNLVADLVQEVQQARDLQNRSGAMSPMSWNSDASTSEAS
B2: TDRKH (protein, UniProt Q9Y2W6 1-561, looked up)
Tudor and KH …: MSTERTSWTSLSTIQKIALGLGIPASATVAYILYRRYRESREERLTFVGEDDIEIEMRVPQEAVKLIIGRQGANIKQLRKQTGARIDVDTEDVGDERVLLISGFPVQVCKAKAAIHQILTENTPVSEQLSVPQRSVGRIIGRGGETIRSICKASGAKITCDKESEGTLLLSRLIKISGTQKEVAAAKHLILEKVSEDEELRKRIAHSAETRVPRKQPISVRREDMTEPGGAGEPALWKNTSSSMEPTAPLVTPPPKGGGDMAVVVSKEGSWEKPSDDSFQKSEAQAIPEMPMFEIPSPDFSFHADEYLEVYVSASEHPNHFWIQIVGSRSLQLDKLVNEMTQHYENSVPEDLTVHVGDIVAAPLPTNGSWYRARVLGTLENGNLDLYFVDFGDNGDCPLKDLRALRSDFLSLPFQAIECSLARIAPSGDQWEEEALDEFDRLTHCADWKPLVAKISSYVQTGISTWPKIYLYDTSNGKKLDIGLELVHKGYAIELPEDIEENRAVPDMLKDMATETDASLSTLLTETKKSSGEITHTLSCLSLSEAASMSGDDNLEDDYLL
B3: GM-CSF-R-alpha (protein, UniProt P15509 23-400, looked up)
Granulocyte-macrophage …: EKSDLRTVAPASSLNVRFDSRTMNLSWDCQENTTFSKCFLTDKKNRVVEPRLSNNECSCTFREICLHEGVTFEVHVNTSQRGFQQKLLYPNSGREGTAAQNFSCFIYNADLMNCTWARGPTAPRDVQYFLYIRNSKRRREIRCPYYIQDSGTHVGCHLDNLSGLTSRNYFLVNGTSREIGIQFFDSLLDTKKIERFNPPSNVTVRCNTTHCLVRWKQPRTYQKLSYLDFQYQLDVHRKNTQPGTENLLINVSGDLENRYNFPSSEPRAKHSVKIRAADVRILNWSSWSEAIEFGSDDGNLGSVYIYVLLIVGTLVCGIVLGFLFKRFLRIQRLFPPVPQIKDKLNDNHEVEDEIIWEEFTPEEGKGYREEVLTVKEIT
B4: PILRB (protein, UniProt Q9UKJ0 20-227, looked up)
Paired immunoglobulin-like …: QPGGSTGSGPSYLYGVTQPKHLSASMGGSVEIPFSFYYPWELAIVPNVRISWRRGHFHGQSFYSTRPPSIHKDYVNRLFLNWTEGQESGFLRISNLRKEDQSVYFCRVELDTRRSGRQQLQSIKGTKLTITQAVTTTTTWRPSSTTTIAGLRVTESKGHSESWHLSLDTAIRVALAVAVLKTVILGLLCLLLLWWRRRKGSRAPSSDF
B5: LAMP3 (protein, UniProt Q9UQV4 28-416, looked up)
Lysosome-associated membrane …: KAFPETRDYSQPTAAATVQDIKKPVQQPAKQAPHQTLAARFMDGHITFQTAATVKIPTTTPATTKNTATTSPITYTLVTTQATPNNSHTAPPVTEVTVGPSLAPYSLPPTITPPAHTTGTSSSTVSHTTGNTTQPSNQTTLPATLSIALHKSTTGQKPVQPTHAPGTTAAAHNTTRTAAPASTVPGPTLAPQPSSVKTGIYQVLNGSRLCIKAEMGIQLIVQDKESVFSPRRYFNIDPNATQASGNCGTRKSNLLLNFQGGFVNLTFTKDEESYYISEVGAYLTVSDPETIYQGIKHAVVMFQTAVGHSFKCVSEQSLQLSAHLQVKTTDVQLQAFDFEDDHFGNVDECSSDYTIVLPVIGAIVVGLCLMGMGVYKIRLRCQSSGYQRI
B6: FCRL1 (protein, UniProt Q96LA6 17-429, looked up)
Fc receptor-like protein 1: AELFLIASPSHPTEGSPVTLTCKMPFLQSSDAQFQFCFFRDTRALGPGWSSSPKLQIAAMWKEDTGSYWCEAQTMASKVLRSRRSQINVHRVPVADVSLETQPPGGQVMEGDRLVLICSVAMGTGDITFLWYKGAVGLNLQSKTQRSLTAEYEIPSVRESDAEQYYCVAENGYGPSPSGLVSITVRIPVSRPILMLRAPRAQAAVEDVLELHCEALRGSPPILYWFYHEDITLGSRSAPSGGGASFNLSLTEEHSGNYSCEANNGLGAQRSEAVTLNFTVPTGARSNHLTSGVIEGLLSTLGPATVALLFCYGLKRKIGRRSARDPLRSLPSPLPQEFTYLNSPTPGQLQPIYENVNVVSGDEVYSLAYYNQPEQESVAAETLGTHMEDKVSLDIYSRLRKANITDVDYEDAM
B7: LYVE1 (protein, UniProt Q9Y5Y7 20-322, looked up)
Lymphatic vessel endothelial …: LVQGSLRAEELSIQVSCRIMGITLVSKKANQQLNFTEAKEACRLLGLSLAGKDQVETALKASFETCSYGWVGDGFVVISRISPNPKCGKNGVGVLIWKVPVSRQFAAYCYNSSDTWTNSCIPEIITTKDPIFNTQTATQTTEFIVSDSTYSVASPYSTIPAPTTTPPAPASTSIPRRKKLICVTEVFMETSTMSTETEPFVENKAAFKNEAAGFGGVPTALLVLALLFFGAAAGLGFCYVKRYVKAFPFTNKNQQKEMIETKVVKEEKANDSNPNEESKKTDKNPEESKSPSKTTVRCLEAEV
B8: CLEC6A (protein, UniProt Q6EIG7 1-209, looked up)
C-type lectin domain family 6 …: MMQEQQPQSTEKRGWLSLRLWSVAGISIALLSACFIVSCVVTYHFTYGETGKRLSELHSYHSSLTCFSEGTKVPAWGCCPASWKSFGSSCYFISSEEKVWSKSEQNCVEMGAHLVVFNTEAEQNFIVQQLNESFSYFLGLSDPQGNNNWQWIDKTPYEKNVRFWHLGEPNHSAEQCASIVFWKPTGWGWNDVICETRRNSICEMNKIYL
B9: Gal-4 (protein, UniProt P56470 1-323, looked up)
Galectin-4: MAYVPAPGYQPTYNPTLPYYQPIPGGLNVGMSVYIQGVASEHMKRFFVNFVVGQDPGSDVAFHFNPRFDGWDKVVFNTLQGGKWGSEERKRSMPFKKGAAFELVFIVLAEHYKVVVNGNPFYEYGHRLPLQMVTHLQVDGDLQLQSINFIGGQPLRPQGPPMMPPYPGPGHCHQQLNSLPTMEGPPTFNPPVPYFGRLQGGLTARRTIIIKGYVPPTGKSFAINFKVGSSGDIALHINPRMGNGTVVRNSLLNGSWGSEEKKITHNPFGPGQFFDLSIRCGLDRFKVYANGQHLFDFAHRLSAFQRVDTLEIQGDVTLSYVQI
B10: CD40-L (protein, UniProt P29965 113-261, looked up)
CD40 ligand, soluble form: MQKGDQNPQIAAHVISEASSKTTSVLQWAEKGYYTMSNNLVTLENGKQLTVKRQGLYYIYAQVTFCSNREASSQAPFIASLCLKSPGRFERILLRAANTHSSAKPCGQQSIHLGGVFELQPGASVFVNVTDPSQVSHGTGFTSFGLLKL
B11: GSAP (protein, UniProt A4D1B5 1-854, looked up)
Gamma-secretase-activating …: MALRLVADFDLGKDVLPWLRAQRAVSEASGAGSGGADVLENDYESLHVLNVERNGNIIYTYKDDKGNVVFGLYDCQTRQNELLYTFEKDLQVFSCSVNSERTLLAASLVQSTKEGKRNELQPGSKCLTLLVEIHPVNNVKVLKAVDSYIWVQFLYPHIESHPLPENHLLLISEEKYIEQFRIHVAQEDGNRVVIKNSGHLPRDRIAEDFVWAQWDMSEQRLYYIDLKKSRSILKCIQFYADESYNLMFEVPLDISLSNSGFKLVNFGCDYHQYRDKFSKHLTLCVFTNHTGSLCVCYSPKCASWGQITYSVFYIHKGHSKTFTTSLENVGSHMTKGITFLNLDYYVAVYLPGHFFHLLNVQHPDLICHNLFLTGNNEMIDMLPHCPLQSLSGSLVLDCCSGKLYRALLSQSSLLQLLQNTCLDCEKMAALHCALYCGQGAQFLEAQIIQWISENVSACHSFDLIQEFIIASSYWSVYSETSNMDKLLPHSSVLTWNTEIPGITLVTEDIALPLMKVLSFKGYWEKLNSNLEYVKYAKPHFHYNNSVVRREWHNLISEEKTGKRRSAAYVRNILDNAVKVISNLEARNLGPRLTPLLQEEDSHQRLLMGLMVSELKDHFLRHLQGVEKKKIEQMVLDYISKLLDLICHIVETNWRKHNLHSWVLHFNSRGSAAEFAVFHIMTRILEATNSLFLPLPPGFHTLHTILGVQCLPLHNLLHCIDSGVLLLTETAVIRLMKDLDNTEKNEKLKFSIIVRLPPLIGQKICRLWDHPMSSNIISRNHVTRLLQNYKKQPRNSMINKSSFSVEFLPLNYFIEILTDIESSNQALYPFEGHDNVDAEFVEEAALKHTAMLLGL
B12: VEGFC (protein, UniProt P49767 112-227, looked up)
Vascular endothelial growth …: AHYNTEILKSIDNEWRKTQCMPREVCIDVGKEFGVATNTFFKPPCVSVYRCGGCCNSEGLQCMNTSTSYLSKTLFEITVPLSQGPKPVTISFANHTSCRCMSKLDVYRQVHSIIRR
B13: FABP4 (protein, UniProt P15090 2-132, looked up)
Fatty acid-binding protein, …: CDAFVGTWKLVSSENFDDYMKEVGVGFATRKVAGMAKPNMIISVNGDVITIKSESTFKNTEISFILGQEFDEVTADDRKVKSTITLDGGVLVHVQKWDGKSTTIKRKREDDKLVVECVMKGVTSTRVYERA

Tested on: plasma proteins
Test: Plasma proteins modulated between baseline and day 28 in responders (CR, VGPR, PR; n = 19), Example 6 (Table 13)
Format: in vivo, human
Conditions: plasma protein (OLINK NPX); responders (CR, VGPR, PR; n = 19); itacitinib 200 mg or 300 mg QD with corticosteroids; day 28 vs baseline
Summary of the method: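 Plasma at baseline/screening and day 28 profiled for >1000 proteins by OLINK proximity extension assay, reported as NPX (log2). Steroid-naive and steroid-refractory patients pooled. Paired and unpaired t tests, ANOVA and Pearson correlation applied; significance at P<0.05.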

In order of falling “Fold Change, Decreased Expression from Baseline to Day 28” value:
1. B12  −1.1727
2. B7  −1.227
3. B2  −1.2785
4. B4  −1.3019
5. B8  −1.3248
6. B6  −1.3733
7. B11  −1.4153
8. B3  −1.4489
9. B1  −1.546
10. B10  −1.5868
11. B5  −1.7705

In order of rising “Fold Change, Increased Expression from Baseline to Day 28” value:
1. B9  1.4274
2. B13  1.6926
